The values that follow are results of earlier work, collected in PMC3728333, “Development of an Epidermal Growth Factor Derivative with EGFR Blocking Activity” (PLoS ONE, 2013).

The test system of data set [1] is EGFR-positive breast cancer cells. The source says: (§1) Moreover, EGFt could also be used as a targeted toxin delivery agent. In this respect, we are currently developing ^111In–DTPA–EGFt as a potential Auger electron-emitting radiotherapeutic for EGFR-positive breast cancer.
Data set [2] deals with EGFR-positive breast cancer. The note with it: ref [44], [45].
Excerpt: as §1

B1: ^111In-DTPA-hEGF: ^111In-DTPA-hEGF, Kd value obtained from previous work (conjugate, UniProt P01133 23-1207, looked up)
Pro-epidermal growth factor: PQHWSCPEGTLAGNGNSTCVGPAPFLIFSHGNSIFRIDTEGTNYEQLVVDAGVSVIMDFHYNEKRIYWVDLERQLLQRVFLNGSRQERVCNIEKNVSGMAINWINEEVIWSNQQEGIITVTDMKGNNSHILLSALKYPANVAVDPVERFIFWSSEVAGSLYRADLDGVGVKALLETSEKITAVSLDVLDKRLFWIQYNREGSNSLICSCDYDGGSVHISKHPTQHNLFAMSLFGDRIFYSTWKMKTIWIANKHTGKDMVRINLHSSFVPLGELKVVHPLAQPKAEDDTWEPEQKLCKLRKGNCSSTVCGQDLQSHLCMCAEGYALSRDRKYCEDVNECAFWNHGCTLGCKNTPGSYYCTCPVGFVLLPDGKRCHQLVSCPRNVSECSHDCVLTSEGPLCFCPEGSVLERDGKTCSGCSSPDNGGCSQLCVPLSPVSWECDCFPGYDLQLDEKSCAASGPQPFLLFANSQDIRHMHFDGTDYGTLLSQQMGMVYALDHDPVENKIYFAHTALKWIERANMDGSQRERLIEEGVDVPEGLAVDWIGRRFYWTDRGKSLIGRSDLNGKRSKIITKENISQPRGIAVHPMAKRLFWTDTGINPRIESSSLQGLGRLVIASSDLIWPSGITIDFLTDKLYWCDAKQSVIEMANLDGSKRRRLTQNDVGHPFAVAVFEDYVWFSDWAMPSVMRVNKRTGKDRVRLQGSMLKPSSLVVVHPLAKPGADPCLYQNGGCEHICKKRLGTAWCSCREGFMKASDGKTCLALDGHQLLAGGEVDLKNQVTPLDILSKTRVSEDNITESQHMLVAEIMVSDQDDCAPVGCSMYARCISEGEDATCQCLKGFAGDGKLCSDIDECEMGVPVCPPASSKCINTEGGYVCRCSEGYQGDGIHCLDIDECQLGEHSCGENASCTNTEGGYTCMCAGRLSEPGLICPDSTPPPHLREDDHHYSVRNSDSECPLSHDGYCLHDGVCMYIEALDKYACNCVVGYIGERCQYRDLKWWELRHAGHGQQQKVIVVAVCVVVLVMLLLLSLWGAHYYRTQKLLSKNPKNPYEESSRDVRSRRPADTEDGMSSCPQPWFVVIKEHQDLKNGGQPVAGEDGQAADGSMQPTSWRQEPQLCGMGTEQGCWIPVSSDKGSCPQVMERSFHMPSYGTQTLEGGVEKPHSLLSANPLWQQRALDPPHQMELTQ
modifications: Pro-epidermal growth factor 111In-DTPA
For the molecule B1, the “cytotoxic effects in vitro” value in data set [1] was “potent cytotoxic effects in vitro”. Also, the “tumour growth inhibition in vivo” value in data set [2] is given as “tumour growth-inhibition in vivo”.
